Results: patent US20220195058A1 (Regeneron, published 2022)
Read-outs that look alike come from different tables or passages of the source.

T1: human NPR1 (hNPR1) with a C-term myc and FLAG tag, stably expressed on HEK293 cells (human, UniProt P16066 33-1061)
T1 sequence: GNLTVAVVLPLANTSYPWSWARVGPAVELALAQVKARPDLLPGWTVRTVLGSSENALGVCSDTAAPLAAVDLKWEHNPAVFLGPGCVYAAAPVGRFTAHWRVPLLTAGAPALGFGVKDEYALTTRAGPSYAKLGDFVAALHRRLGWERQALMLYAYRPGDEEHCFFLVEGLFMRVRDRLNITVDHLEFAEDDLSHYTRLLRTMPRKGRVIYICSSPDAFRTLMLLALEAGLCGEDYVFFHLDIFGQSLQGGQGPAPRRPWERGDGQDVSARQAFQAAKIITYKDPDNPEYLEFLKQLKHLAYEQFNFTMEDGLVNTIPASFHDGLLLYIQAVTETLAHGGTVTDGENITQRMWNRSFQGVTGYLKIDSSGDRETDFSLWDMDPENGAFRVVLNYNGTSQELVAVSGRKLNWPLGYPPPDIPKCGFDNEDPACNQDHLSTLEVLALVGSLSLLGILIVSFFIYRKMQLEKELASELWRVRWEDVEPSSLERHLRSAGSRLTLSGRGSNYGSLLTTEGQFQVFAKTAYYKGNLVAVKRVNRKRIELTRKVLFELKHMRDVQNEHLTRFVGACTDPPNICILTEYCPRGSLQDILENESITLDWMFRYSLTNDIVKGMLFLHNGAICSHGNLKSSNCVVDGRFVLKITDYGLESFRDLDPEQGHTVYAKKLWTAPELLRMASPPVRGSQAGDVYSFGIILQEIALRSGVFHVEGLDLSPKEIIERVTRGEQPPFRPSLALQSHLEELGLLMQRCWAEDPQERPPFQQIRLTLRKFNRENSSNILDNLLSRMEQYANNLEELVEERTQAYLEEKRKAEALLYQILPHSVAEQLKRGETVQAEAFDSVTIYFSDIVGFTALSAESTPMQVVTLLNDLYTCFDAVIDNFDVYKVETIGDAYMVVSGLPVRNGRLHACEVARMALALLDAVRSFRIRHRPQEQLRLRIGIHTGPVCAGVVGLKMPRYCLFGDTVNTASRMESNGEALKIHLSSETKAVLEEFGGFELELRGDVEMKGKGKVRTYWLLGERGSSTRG

B1: R5381 (antibody, V domains shown)
VH: QVQLVQSGAEVKKPGASVTVSCKASGYTFTDYYMHWVRQAPGQGLEWMGWIKPNSGGTNSAQRFQGRITMTWDTSISTAYMELSRLRSDDTAVYYCSRGGPVMNYYYYYGMDVWGQGTTVTVSS
VL: NIQMTQSPSSLSASVGDRVTITCRASQSIDSYLNWYQQKPGKAPKLLIYVASSLQSGVPSRFSGSGSGKDFTLTISSLQPEDFATYYCQQSYSIPTFGQGTRLEIKR
B2: REGN6580 (antibody, human IgG4 S228P, kappa, V domains shown)
VH: QVQLVESGGGVVQPGRSLRLSCAASGFTFSSYGMHWVRQAPGKGLEWVALIWFDGGYKYYADSVKGRFTISRDNSKNTLYLQMNSLRADDTAVYYCARGSAAAGHVPFDYWGQGILVTVSS
VL: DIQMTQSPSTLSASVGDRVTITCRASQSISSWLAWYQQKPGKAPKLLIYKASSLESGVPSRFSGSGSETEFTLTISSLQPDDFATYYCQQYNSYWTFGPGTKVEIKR
notes: Bivalent human IgG4; also called bivalent anti-R5381 mAb; anti-idiotype antibody
B3: REGN6581 (antibody, human IgG4 S228P, kappa, V domains shown)
VH: QVQLQESGPGLVKPSETLSLTCTVSGASISTYYWSWIRQPPGKGLEWIGYIYYSGTTNYNPSLKSRVTISVDTSKNQFSLKLSSVTAADTAVYYCARDRGGYDGEWGQGTLVTVSS
VL: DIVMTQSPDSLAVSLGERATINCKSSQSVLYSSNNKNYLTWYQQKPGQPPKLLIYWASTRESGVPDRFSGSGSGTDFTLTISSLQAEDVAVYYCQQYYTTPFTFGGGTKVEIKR
notes: as for B2
B4: REGN9035 (antibody, human IgG4 S228P, kappa)
heavy: QVQLVESGGGVVQPGRSLRLSCAASGFTFSSYGMHWVRQAPGKGLEWVALIWFDGGYKYYADSVKGRFTISRDNSKNTLYLQMNSLRADDTAVYYCARGSAAAGHVPFDYWGQGILVTVSSASTKGPSVFPLAPCSRSTSESTAALGCLVKDYFPEPVTVSWNSGALTSGVHTFPAVLQSSGLYSLSSVVTVPSSSLGTKTYTCNVDHKPSNTKVDKRVESKYGPPCPPCPAPEFLGGPSVFLFPPKPKDTLMISRTPEVTCVVVDVSQEDPEVQFNWYVDGVEVHNAKTKPREEQFNSTYRVVSVLTVLHQDWLNGKEYKCKVSNKGLPSSIEKTISKAKGQPREPQVYTLPPSQEEMTKNQVSLTCLVKGFYPSDIAVEWESNGQPENNYKTTPPVLDSDGSFFLYSRLTVDKSRWQEGNVFSCSVMHEALHNRFTQKSLSLSPGK
chain: not shown
light: not shown
notes: Monovalent (one-armed) human IgG4: one full heavy chain, one light chain and one truncated heavy chain (Fc); also called one-armed anti-R5381 antibody; monovalent anti-R5381 mAb
B5: REGN9037 (antibody, human IgG4 S228P, kappa)
heavy: QVQLQESGPGLVKPSETLSLTCTVSGASISTYYWSWIRQPPGKGLEWIGYIYYSGTTNYNPSLKSRVTISVDTSKNQFSLKLSSVTAADTAVYYCARDRGGYDGEWGQGTLVTVSSASTKGPSVFPLAPCSRSTSESTAALGCLVKDYFPEPVTVSWNSGALTSGVHTFPAVLQSSGLYSLSSVVTVPSSSLGTKTYTCNVDHKPSNTKVDKRVESKYGPPCPPCPAPEFLGGPSVFLFPPKPKDTLMISRTPEVTCVVVDVSQEDPEVQFNWYVDGVEVHNAKTKPREEQFNSTYRVVSVLTVLHQDWLNGKEYKCKVSNKGLPSSIEKTISKAKGQPREPQVYTLPPSQEEMTKNQVSLTCLVKGFYPSDIAVEWESNGQPENNYKTTPPVLDSDGSFFLYSRLTVDKSRWQEGNVFSCSVMHEALHNRFTQKSLSLSPGK
chain: not shown
light: not shown
notes: as for B4

Columns and labels:
[1] = target: T1, human NPR1 (hNPR1) with a C-term myc …; experiment: cell-based or functional assay
[2] = target: B1; experiment: cell-based or functional assay
[3] = target: REGN1945; experiment: cell-based or functional assay
[4] = target: B1; experiment: cell-based or functional assay; remark: listed apart in the source
[5] = target: T2, H2aM22033N; experiment: SPR Biacore T200, H2aM22033N captured via anti-mouse Fc, analyte injected, 25 C, pH 7.4
T2 construct: also called parental hybridoma of R5381
Experimental: (§1) All binding studies were performed in 10 mM HEPES, 150 mM NaCl, 3 mM EDTA, and 0.05% v/v Surfactant Tween-20, pH 7.4 (HBS-ET) running buffer at 25° C. and 37° C. The Biacore CM5 sensor chip surface was first derivatized by amine coupling with anti-mouse Fc specific antibody (GE Healthcare, # BR100838) to capture H2aM22033N. […] The dissociation of different mAbs bound to H2aM22033N was monitored for 10 minutes in HBS-ET running buffer. At the end of each cycle, the H2aM22033N capture surface was regenerated using a 60 sec injection of 10 mM Glycine-HCl, pH 1.5. The association rate (kₐ) and dissociation rate (kd) were determined by fitting the real-time binding sensorgrams to a 1:1 binding model with mass transport limitation using Scrubber 2.0c curve-fitting software. Binding dissociation equilibrium constant (KD) and dissociative half-life (t½) were calculated from the kinetic rates as:

[6] = target: T2, H2aM22033N; experiment: SPR Biacore T200, H2aM22033N captured via anti-mouse Fc, analyte injected, 37 C, pH 7.4
Experimental: as §1

[7] = target: B1; experiment: blocking ELISA: antibody pre-bound to 95 pM Biotin-R5381, binding to coated hNPR1.ecto.mmh read
Experimental: After 1 hour, incubation at RT, the pre-bind reaction mix was transferred to microtiter plates coated with hNPR1.ecto.mmh. The microtiter plates were incubated at RT for 1 hour and then washed with plate washing solution. […] The plates were incubated with detection protein for 1 hour at RT and then washed with plate washing solution. The assay plates were developed with TMB colorimetric substrates according to the manufacturer's recommended procedure.
The absorbance at 450 nm for each well was recorded and plotted as the function of the concentration of antibody. Data was analyzed in GraphPad Prism software using a four-parameter logistic equation over an 11-point dose response curve and IC₅₀ values were calculated.

[8] = target: REGN1945; experiment: cell-based or functional assay; remark: listed apart in the source
[9] = target: B1; experiment: cell-based or functional assay; remark: listed apart in the source
[10] = target: T2, H2aM22033N; experiment: SPR Biacore 4000, H2aM22033N captured via anti-mouse Fc, 37 C, association pH 7.4, dissociation pH 7.4
Experimental: (§2) All binding studies were performed at 37° C. using four running buffers, (i) PBS, 0.05% v/v Surfactant Tween-20, pH 7.4 (PBS-T-pH 7.4), (ii) PBS, 0.05% v/v Surfactant Tween-20, pH 6.5 (PBS-T-pH 6.5), (iii) PBS, 0.05% v/v Surfactant Tween-20, pH 6.0 (PBS-T-pH 6.0), and (iv) PBS, 0.05% v/v Surfactant Tween-20, pH 5.0 (PBS-T-pH 5.0).
(§3) The dissociation rate constants (kd) in four pH running buffers were determined by fitting the real-time binding sensorgrams to a 1:1 binding model using Scrubber 2.0c curve-fitting software. The dissociative half-life (t½) was calculated from the kd values as:

[11] = target: T2, H2aM22033N; experiment: SPR Biacore 4000, H2aM22033N captured via anti-mouse Fc, 37 C, association pH 7.4, dissociation pH 6.5
Experimental: as §2, §3

[12] = target: T2, H2aM22033N; experiment: SPR Biacore 4000, H2aM22033N captured via anti-mouse Fc, 37 C, association pH 7.4, dissociation pH 6.0
Experimental: as §2, §3

[13] = target: T2, H2aM22033N; experiment: SPR Biacore 4000, H2aM22033N captured via anti-mouse Fc, 37 C, association pH 7.4, dissociation pH 5.0
Experimental: as §2, §3

Binder | IC50 of inhibition of 70 nM R5381-induced cGMP, 40 pM ANP [2] | IC50 of inhibition of 70 nM R5381-induced cGMP, 80 pM BNP [2] | IC50 of inhibition of 70 nM R5381-induced cGMP, no ligand [2] | Max Inh. (%) of 70 nM R5381-induced cGMP, 40 pM ANP [2] | Max Inh. (%) of 70 nM R5381-induced cGMP, 80 pM BNP [2] | Max Inh. (%) of 70 nM R5381-induced cGMP, no ligand [2] | C1q-CIC assay Final Value; 100 nM antibody + 100 nM antigen; Result Neg [3] | C1q-CIC assay Final Value; 1 uM antibody + 100 nM antigen; Result Neg [3] | 100 nM Ag Bound (RU) [5] | Kd [5] | koff [5] | kon [5] | t1/2 [5] | 100 nM Ag Bound (RU) [6] | Kd [6] | koff [6] | kon [6] | t1/2 [6] | % Blocking with 333.33 nM antibody [7] | IC50 [7] | further results
B1 |  |  |  |  |  |  |  |  |  |  |  |  |  |  |  |  |  |  |  |  | cGMP accumulation (HTRF) EC50, no ligand [1]: 31.2 nM; cGMP accumulation (HTRF) EC50, with 40 pM ANP [1]: 2.07e-08 M; cGMP accumulation (HTRF) EC50, with 80 pM BNP [1]: 1.78e-09 M
B2 | 2.23e-08 M | 3.32e-08 M | 15.5 nM | 102% | 99% | 99% | 0.11 ug Eq/mL | 0.16 ug Eq/mL | 110 RU | 0.528 nM | 9.42e-05 s⁻¹ | 178000 M⁻¹ s⁻¹ | 123 min | 160 RU | 0.914 nM | 0.000424 s⁻¹ | 464000 M⁻¹ s⁻¹ | 27 min | 100% | 0.381 nM | C1q-CIC assay Final Value; 100 nM antibody + 100 nM antigen; Result Neg [4]: 0.22 ug Eq/mL; C1q-CIC assay Final Value; 1 uM antibody + 100 nM antigen; Result Neg [4]: 0.2 ug Eq/mL
B3 | 2.06e-08 M | 3.5e-08 M | 18 nM | 104% | 99% | 100% |  |  | 65 RU | 0.561 nM | 7.11e-05 s⁻¹ | 127000 M⁻¹ s⁻¹ | 163 min | 104 RU | 1.16 nM | 0.000367 s⁻¹ | 317000 M⁻¹ s⁻¹ | 31 min | 100% | 0.543 nM | C1q-CIC assay Final Value; 100 nM antibody + 100 nM antigen; Result Neg [8]: 0.35 ug Eq/mL; C1q-CIC assay Final Value; 1 uM antibody + 100 nM antigen; Result Neg [8]: 0.3 ug Eq/mL; C1q-CIC assay Final Value; 100 nM antibody + 100 nM antigen; Result Neg [9]: 0.65 ug Eq/mL; C1q-CIC assay Final Value; 1 uM antibody + 100 nM antigen; Result Neg [9]: 0.53 ug Eq/mL
B4 | 2.66e-08 M | 4.13e-08 M | 46 nM | 104% | 97% | 100% | 0.15 ug Eq/mL | 0.2 ug Eq/mL | 47 RU | 1.76 nM | 0.000132 s⁻¹ | 75100 M⁻¹ s⁻¹ | 87 min | 81 RU | 5.78 nM | 0.00086 s⁻¹ | 149000 M⁻¹ s⁻¹ | 13 min | 99.3% | 2.04 nM | C1q-CIC assay Final Value; 100 nM antibody + 100 nM antigen; Result Neg [4]: 0.18 ug Eq/mL; C1q-CIC assay Final Value; 1 uM antibody + 100 nM antigen; Result Neg [4]: 0.29 ug Eq/mL; koff [10]: 0.000996 s⁻¹; t1/2 [10]: 12 min; koff [11]: 0.00142 s⁻¹; t1/2 [11]: 8 min; koff [12]: 0.00294 s⁻¹; t1/2 [12]: 3.9 min; koff [13]: 0.0197 s⁻¹; t1/2 [13]: 0.6 min
B5 | 1.76e-08 M | 3.81e-08 M | 36.3 nM | 101% | 97% | 99% |  |  | 31 RU | 1.52 nM | 9.89e-05 s⁻¹ | 65100 M⁻¹ s⁻¹ | 117 min | 55 RU | 6.71 nM | 0.000738 s⁻¹ | 110000 M⁻¹ s⁻¹ | 16 min | 99% | 2.4 nM | C1q-CIC assay Final Value; 100 nM antibody + 100 nM antigen; Result Neg [8]: 0.37 ug Eq/mL; C1q-CIC assay Final Value; 1 uM antibody + 100 nM antigen; Result Neg [8]: 0.55 ug Eq/mL; C1q-CIC assay Final Value; 100 nM antibody + 100 nM antigen; Result Neg [9]: 0.64 ug Eq/mL; C1q-CIC assay Final Value; 1 uM antibody + 100 nM antigen; Result Neg [9]: 0.42 ug Eq/mL; koff [10]: 0.000867 s⁻¹; t1/2 [10]: 13 min; koff [11]: 0.000792 s⁻¹; t1/2 [11]: 15 min; koff [12]: 0.000811 s⁻¹; t1/2 [12]: 14 min; koff [13]: 0.000664 s⁻¹; t1/2 [13]: 17 min
